Experimental data reported in patent US20090082268A1 (GEYMONAT S P A, published 2009).

Target: T1, human VEGFR-1/Fc (R&D Systems) (human, UniProt P17948 27-756, limits assumed)
T1 construct: Bought reagent, coated on the ELISA plate; also called receptor Flt-1; not shown: Fc part of the bought fusion
Experiment: ELISA: VEGFR-1/Fc coated, PlGF-1 diluted two-fold from 20 ng/ml, detected with biotinylated anti-human PlGF antibodies
Method: To test receptor binding, an ELISA assay was performed according to the following protocol: [0141] 1. Well of 96-well microtiter plate were coated with 200 μl of 1 μg/ml human VEGFR-1/Fc (R&D Systems) and incubated overnight at 4° C. [0142] 2. Two-fold dilution series starting at 20 ng/ml of various preparations of recombinant human PlGF-1 were prepared and added in a volume of 100 μl per well. The plate was incubated for 2 hours at room temperature. [0143] 3. Bound PlGF-1 was captured with biotinylated anti-human PlGF antibodies (R&D Systems) added in a volume of 100 μl per well for 1 hour at room temperature. [0144] 4. A 1:200 dilution of horseradish peroxidase-conjugated streptavidin (R&D Systems) was added and incubated for 20 min. at room temperature. [0145] 5. Substrate solution (TMB from Pierce) was added and after 15 min. the reaction was quenched with 2 M sulfuric acid. [0146] 6. The absorbance was measured at 450 nm.

T1 sequence (P17948 27-756 limits assumed): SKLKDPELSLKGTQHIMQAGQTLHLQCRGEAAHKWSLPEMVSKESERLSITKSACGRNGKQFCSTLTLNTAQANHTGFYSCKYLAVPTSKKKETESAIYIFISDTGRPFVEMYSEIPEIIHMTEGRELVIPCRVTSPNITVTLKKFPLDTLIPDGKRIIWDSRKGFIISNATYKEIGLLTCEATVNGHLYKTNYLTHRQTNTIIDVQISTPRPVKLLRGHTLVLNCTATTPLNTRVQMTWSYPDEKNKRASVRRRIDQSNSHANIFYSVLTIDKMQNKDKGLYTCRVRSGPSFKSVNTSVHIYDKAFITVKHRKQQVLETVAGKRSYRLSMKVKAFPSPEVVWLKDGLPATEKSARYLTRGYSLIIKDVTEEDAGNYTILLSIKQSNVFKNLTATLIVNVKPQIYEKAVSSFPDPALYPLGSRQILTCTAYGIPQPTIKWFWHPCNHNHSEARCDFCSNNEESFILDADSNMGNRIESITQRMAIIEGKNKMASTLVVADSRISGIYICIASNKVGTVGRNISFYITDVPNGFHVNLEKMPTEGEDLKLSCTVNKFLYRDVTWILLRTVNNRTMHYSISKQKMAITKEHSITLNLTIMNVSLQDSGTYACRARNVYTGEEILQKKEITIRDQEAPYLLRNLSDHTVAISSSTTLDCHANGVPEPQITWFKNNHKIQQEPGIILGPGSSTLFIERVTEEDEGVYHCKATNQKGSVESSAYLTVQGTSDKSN

binding result: binds
B1: PlGF-1 mutein from Geymonat (recombinant human PLGF-1CG) (ligand)
chain: MLPAVPPQQWALSAGNGSSEVEVVPFQEVWGRSYCRALERLVDVVSEYPSEVEHMFSPSCVSLLRCTGCCGDENLHCVPVETANVTMQLLKIRSGDRPSYVELTFSQHVRCECRPLREKMKPERGGDAVPRR
notes: Described as 'a PlGF-1 mutein embodiment of the present invention'; also called Geymonat Mutein; Mutein Geymonat
